Reference: US20220010021A1 (Sanofi, published 2022)
Numbering of substitutions follows the chain as printed.

T1: human beta-Klotho (KLB) (human, UniProt Q86Z14 53-997)
T1 construct: also called human KLB
T1 sequence (looked up): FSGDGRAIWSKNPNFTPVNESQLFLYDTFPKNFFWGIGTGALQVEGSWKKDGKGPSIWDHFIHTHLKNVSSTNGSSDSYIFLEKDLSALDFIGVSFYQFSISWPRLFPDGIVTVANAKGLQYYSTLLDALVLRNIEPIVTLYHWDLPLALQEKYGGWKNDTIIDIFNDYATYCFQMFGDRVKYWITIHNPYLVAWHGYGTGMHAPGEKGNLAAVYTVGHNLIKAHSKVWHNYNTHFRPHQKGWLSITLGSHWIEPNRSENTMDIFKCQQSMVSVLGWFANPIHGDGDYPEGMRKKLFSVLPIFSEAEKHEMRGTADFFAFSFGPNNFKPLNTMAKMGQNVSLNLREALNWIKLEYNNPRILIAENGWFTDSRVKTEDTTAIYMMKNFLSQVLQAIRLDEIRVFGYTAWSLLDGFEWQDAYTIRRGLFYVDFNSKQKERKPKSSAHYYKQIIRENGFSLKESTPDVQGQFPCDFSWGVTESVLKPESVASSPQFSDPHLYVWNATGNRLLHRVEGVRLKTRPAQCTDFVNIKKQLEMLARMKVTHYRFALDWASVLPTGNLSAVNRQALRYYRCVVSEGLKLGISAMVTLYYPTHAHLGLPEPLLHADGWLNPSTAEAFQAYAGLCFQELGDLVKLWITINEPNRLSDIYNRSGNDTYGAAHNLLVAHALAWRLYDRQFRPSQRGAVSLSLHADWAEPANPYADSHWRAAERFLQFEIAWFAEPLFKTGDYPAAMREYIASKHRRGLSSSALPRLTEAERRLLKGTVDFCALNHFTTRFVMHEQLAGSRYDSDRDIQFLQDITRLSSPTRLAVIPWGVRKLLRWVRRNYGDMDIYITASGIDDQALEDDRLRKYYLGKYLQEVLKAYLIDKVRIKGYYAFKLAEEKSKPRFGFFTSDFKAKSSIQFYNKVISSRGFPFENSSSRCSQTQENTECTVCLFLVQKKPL

T2: human beta-Klotho (KLB) (human, UniProt Q86Z14 53-997)
T2 construct: Bought protein; also called human KLB; β-Klotho
T2 sequence (looked up): T1 sequence (looked up)

B1: 16H7 variant, light chain R53H (antibody, human IgG4 S228P, lambda, V domains shown)
VH: not shown
VL: SYVLTQPPSVSVAPGQTARITCGGNNIGSESVHWYQQKPGQAPVLVVYDDSDHPSGIPERFSGSNSGNTATLTISRVEAGDEADYYCQVWDGNSDHVVFGGGTKLTVLG
notes: IgG4 backbone
B2: 16H7 light chain variant V32R (antibody, IgG4, V domains shown)
VH: not shown
VL: B1 VL with V32R, H53R
notes: IgG4 backbone
B3: 16H7 light chain variant D50E (antibody, IgG4, V domains shown)
VH: not shown
VL: B1 VL with D50E, H53R
notes: IgG4 backbone
B4: 16H7 variant, light chain S55E (antibody, IgG4, V domains shown)
VH: not shown
VL: B1 VL with H53R, S55E
notes: IgG4 backbone; copies: 2 + 2
B5: 16H7 light chain variant D49W (antibody, IgG4, V domains shown)
VH: not shown
VL: B1 VL with D49W, H53R
notes: IgG4 backbone
B6: 16H7 light chain variant D50L (antibody, IgG4, V domains shown)
VH: not shown
VL: B1 VL with D50L, H53R
notes: IgG4 backbone
B7: 16H7 variant, light chain S55P (antibody, human IgG4 S228P, lambda, V domains shown)
VH: not shown
VL: B1 VL with H53R, S55P
notes: IgG4 backbone
B8: 16H7 variant, light chain S55V (antibody, human IgG4 S228P, lambda, V domains shown)
VH: not shown
VL: B1 VL with H53R, S55V
notes: IgG4 backbone
B9: 16H7 light chain variant D50I (antibody, IgG4, V domains shown)
VH: not shown
VL: B1 VL with D50I, H53R
notes: IgG4 backbone
B10: 16H7 light chain variant D50F (antibody, IgG4, V domains shown)
VH: not shown
VL: B1 VL with D50F, H53R
notes: IgG4 backbone
B11: 16H7 variant, light chain S55I (antibody, human IgG4 S228P, lambda, V domains shown)
VH: not shown
VL: B1 VL with H53R, S55I
notes: IgG4 backbone
B12: 16H7 light chain variant D50G (antibody, IgG4, V domains shown)
VH: not shown
VL: B1 VL with D50G, H53R
notes: IgG4 backbone
B13: 16H7 variant, light chain R53P (antibody, human IgG4 S228P, lambda, V domains shown)
VH: not shown
VL: B1 VL with H53P
notes: IgG4 backbone
B14: 16H7 light chain variant D50C (antibody, IgG4, V domains shown)
VH: not shown
VL: B1 VL with D50C, H53R
notes: IgG4 backbone
B15: 16H7 light chain variant D50H (antibody, IgG4, V domains shown)
VH: not shown
VL: B1 VL with D50H, H53R
notes: IgG4 backbone
B16: 16H7 variant, light chain S55T (antibody, human IgG4 S228P, lambda, V domains shown)
VH: not shown
VL: B1 VL with H53R, S55T
notes: IgG4 backbone
B17: 16H7 variant, light chain R53K (antibody, human IgG4 S228P, lambda, V domains shown)
VH: not shown
VL: B1 VL with H53K
notes: IgG4 backbone
B18: 16H7 light chain variant D50A (antibody, IgG4, V domains shown)
VH: not shown
VL: B1 VL with D50A, H53R
notes: IgG4 backbone
B19: 16H7 variant, light chain S55F (antibody, IgG4, V domains shown)
VH: not shown
VL: B1 VL with H53R, S55F
notes: IgG4 backbone; copies: 2 + 2
B20: 16H7 variant, light chain S55R (antibody, IgG4, V domains shown)
VH: not shown
VL: B1 VL with H53R, S55R
notes: IgG4 backbone; copies: 2 + 2
B21: 16H7 variant, light chain S55C (antibody, human IgG4 S228P, lambda, V domains shown)
VH: not shown
VL: B1 VL with H53R, S55C
notes: IgG4 backbone
B22: 16H7 variant, light chain S55H (antibody, human IgG4 S228P, lambda, V domains shown)
VH: not shown
VL: B1 VL with H53R, S55H
notes: IgG4 backbone
B23: 16H7 variant, light chain S51G (antibody, human IgG4 S228P, lambda, V domains shown)
VH: not shown
VL: B1 VL with S51G, H53R
notes: IgG4 backbone
B24: 16H7 variant, light chain R53Q (antibody, human IgG4 S228P, lambda, V domains shown)
VH: not shown
VL: B1 VL with H53Q
notes: IgG4 backbone
B25: 16H7 variant, light chain R53I (antibody, human IgG4 S228P, lambda, V domains shown)
VH: not shown
VL: B1 VL with H53I
notes: IgG4 backbone
B26: 16H7 variant, light chain R53T (antibody, human IgG4 S228P, lambda, V domains shown)
VH: not shown
VL: B1 VL with H53T
notes: IgG4 backbone
B27: 16H7 variant, light chain S55Y (antibody, IgG4, V domains shown)
VH: not shown
VL: B1 VL with H53R, S55Y
notes: IgG4 backbone; copies: 2 + 2
B28: 16H7 variant, light chain S55G (antibody, human IgG4 S228P, lambda, V domains shown)
VH: not shown
VL: B1 VL with H53R, S55G
notes: IgG4 backbone
B29: 16H7 variant, light chain R53S (antibody, human IgG4 S228P, lambda, V domains shown)
VH: not shown
VL: B1 VL with H53S
notes: IgG4 backbone
B30: 16H7 variant, light chain S55N (antibody, human IgG4 S228P, lambda, V domains shown)
VH: not shown
VL: B1 VL with H53R, S55N
notes: IgG4 backbone
B31: 16H7 variant, light chain R53L (antibody, human IgG4 S228P, lambda, V domains shown)
VH: not shown
VL: B1 VL with H53L
notes: IgG4 backbone
B32: 16H7 variant, light chain S55D (antibody, human IgG4 S228P, lambda, V domains shown)
VH: not shown
VL: B1 VL with H53R, S55D
notes: IgG4 backbone
B33: 16H7 variant, light chain S55L (antibody, IgG4, V domains shown)
VH: not shown
VL: B1 VL with H53R, S55L
notes: IgG4 backbone; copies: 2 + 2
B34: 16H7 variant, light chain R53M (antibody, human IgG4 S228P, lambda, V domains shown)
VH: not shown
VL: B1 VL with H53M
notes: IgG4 backbone
B35: 16H7 light chain variant D49G (antibody, IgG4, V domains shown)
VH: not shown
VL: B1 VL with D49G, H53R
notes: IgG4 backbone
B36: 16H7 light chain variant D49S (antibody, IgG4, V domains shown)
VH: not shown
VL: B1 VL with D49S, H53R
notes: IgG4 backbone

Key:
[1] = target: human FGFR1c/KLB cell surface receptor complex on iLite FGF21 reporter cells (human, UniProt P11362 22-822; Q86Z14 1-1044); assay: cell-based or functional assay
human beta-Klotho (KLB) [2] = target: T1, human beta-Klotho (KLB); assay: BLI off-rate screen (Octet), Ab captured via Fc;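 further: antibody supernatants applied at 25 µg/mL, dissociation monitored over 1800 s in D-PBS with 0.1% BSA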
[3] = target: cell surface receptor composed of FGFR1c and co-receptor beta-Klotho (KLB) (human, UniProt P11362 22-822; Q86Z14 1-1044); assay: cell-based or functional assay
human beta-Klotho (KLB) [4] = target: T2, human beta-Klotho (KLB); assay: BLI off-rate screening (Octet), crude supernatant;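 further: supernatants tested at 25 µg/mL, dissociation from biosensors recorded in D-PBS with 0.1% BSA over 1800 s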

Sequence of human FGFR1c/KLB cell surface receptor complex on iLite FGF21 reporter cells (P11362 22-822, chain 1 of 2): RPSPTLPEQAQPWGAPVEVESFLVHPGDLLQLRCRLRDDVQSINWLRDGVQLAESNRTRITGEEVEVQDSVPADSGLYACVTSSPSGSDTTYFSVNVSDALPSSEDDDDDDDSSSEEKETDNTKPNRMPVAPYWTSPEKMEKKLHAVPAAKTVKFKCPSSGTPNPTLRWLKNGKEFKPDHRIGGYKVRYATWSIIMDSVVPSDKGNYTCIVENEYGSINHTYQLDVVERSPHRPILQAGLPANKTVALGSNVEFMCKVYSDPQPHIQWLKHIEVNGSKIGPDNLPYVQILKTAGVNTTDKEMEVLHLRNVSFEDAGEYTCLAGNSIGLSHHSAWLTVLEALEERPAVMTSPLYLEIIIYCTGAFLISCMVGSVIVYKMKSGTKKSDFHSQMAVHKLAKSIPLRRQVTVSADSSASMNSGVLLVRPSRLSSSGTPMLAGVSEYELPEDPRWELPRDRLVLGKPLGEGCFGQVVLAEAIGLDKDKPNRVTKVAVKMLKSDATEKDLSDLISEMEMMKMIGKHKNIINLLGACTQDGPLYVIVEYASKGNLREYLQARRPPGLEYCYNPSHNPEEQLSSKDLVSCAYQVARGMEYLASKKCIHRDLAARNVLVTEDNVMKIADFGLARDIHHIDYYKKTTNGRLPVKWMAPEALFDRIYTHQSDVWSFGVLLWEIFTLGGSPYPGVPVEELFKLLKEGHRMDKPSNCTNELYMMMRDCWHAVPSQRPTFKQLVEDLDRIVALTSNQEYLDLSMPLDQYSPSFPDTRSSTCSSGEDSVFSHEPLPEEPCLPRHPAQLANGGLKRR
Sequence of human FGFR1c/KLB cell surface receptor complex on iLite FGF21 reporter cells (Q86Z14 whole entry, chain 2 of 2): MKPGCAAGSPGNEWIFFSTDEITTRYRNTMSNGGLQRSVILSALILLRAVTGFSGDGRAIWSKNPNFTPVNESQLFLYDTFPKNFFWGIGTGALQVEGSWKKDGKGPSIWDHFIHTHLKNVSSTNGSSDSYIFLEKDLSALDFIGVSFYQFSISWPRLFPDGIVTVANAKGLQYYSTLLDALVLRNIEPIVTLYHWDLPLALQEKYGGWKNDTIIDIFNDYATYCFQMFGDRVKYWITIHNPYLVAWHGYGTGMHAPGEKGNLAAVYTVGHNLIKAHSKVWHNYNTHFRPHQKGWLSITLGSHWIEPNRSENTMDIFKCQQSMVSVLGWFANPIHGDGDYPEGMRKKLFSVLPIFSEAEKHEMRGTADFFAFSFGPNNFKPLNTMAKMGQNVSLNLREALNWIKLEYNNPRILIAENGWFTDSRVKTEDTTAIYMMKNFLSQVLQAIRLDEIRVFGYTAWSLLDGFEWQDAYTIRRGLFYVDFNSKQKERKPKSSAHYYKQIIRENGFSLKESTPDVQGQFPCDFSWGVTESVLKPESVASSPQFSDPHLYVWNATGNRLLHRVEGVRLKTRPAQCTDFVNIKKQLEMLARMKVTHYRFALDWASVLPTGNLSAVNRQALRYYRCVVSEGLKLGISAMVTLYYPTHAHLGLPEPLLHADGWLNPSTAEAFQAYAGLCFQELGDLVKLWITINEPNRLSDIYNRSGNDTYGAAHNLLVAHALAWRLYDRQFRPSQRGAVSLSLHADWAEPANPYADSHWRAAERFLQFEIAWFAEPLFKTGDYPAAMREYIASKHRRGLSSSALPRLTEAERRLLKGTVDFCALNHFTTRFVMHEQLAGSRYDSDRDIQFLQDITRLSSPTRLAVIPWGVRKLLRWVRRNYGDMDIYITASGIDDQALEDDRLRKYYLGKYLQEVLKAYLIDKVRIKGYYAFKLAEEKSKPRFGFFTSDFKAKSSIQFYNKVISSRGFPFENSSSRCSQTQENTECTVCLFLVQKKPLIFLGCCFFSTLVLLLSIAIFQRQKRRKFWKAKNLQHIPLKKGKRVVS
Sequence of cell surface receptor composed of FGFR1c and co-receptor beta-Klotho (KLB) (P11362 22-822, chain 1 of 2): as the sequence (P11362 22-822, chain 1 of 2) above
Sequence of cell surface receptor composed of FGFR1c and co-receptor beta-Klotho (KLB) (Q86Z14 whole entry, chain 2 of 2): as the sequence (Q86Z14 whole entry, chain 2 of 2) above

Binder	Mean E max (%) [1] [%]	Mean EC50 [1] [nM]	koff (human beta-Klotho (KLB) [2]) [s⁻¹]	Mean E max, Luciferase reporter gene assay [3] [%]	Mean EC50, Luciferase reporter gene assay [3] [nM]	koff (human beta-Klotho (KLB) [4]) [s⁻¹]
B1	103	0.153	0.00015			
B2				112	0.135	2.3e-06
B3				91	0.123	0.00016
B4	106	0.141	3.8e-05			
B5				101	0.126	0.00032
B6				106	0.095	0.00013
B7	99	0.109	3.2e-05			
B8	100	0.131	4.4e-05			
B9				109	0.114	8.2e-05
B10				113	0.124	0.0001
B11	110	0.133	1.3e-05			
B12				107	0.136	1.7e-05
B13	92	0.126	0.00028			
B14				109	0.153	3.9e-05
B15				94	0.126	0.00019
B16	100	0.109	1.3e-05			
B17	98	0.114	4e-05			
B18				105	0.211	7.6e-05

Binder	Mean E max (%) [1] [%]	Mean EC50 [1] [nM]	koff (human beta-Klotho (KLB) [2]) [s⁻¹]	Mean E max, Luciferase reporter gene assay [3] [%]	Mean EC50, Luciferase reporter gene assay [3] [nM]	koff (human beta-Klotho (KLB) [4]) [s⁻¹]
B19	97	0.095	2.4e-05			
B20	100	0.143	4.9e-05			
B21	91	0.244	6.3e-05			
B22	111	0.122	4e-06			
B23	104	0.129	0.0001			
B24	100	0.131	0.00024			
B25	100	0.151	1.7e-05			
B26	109	0.134	8.7e-05			
B27	113	0.126	1.8e-05			
B28	104	0.128	3.5e-05			
B29	105	0.113	0.00029			
B30	111	0.141	1.7e-05			
B31	106	0.151	2e-05			
B32	109	0.146	3.6e-05			
B33	97	0.126	8.4e-05			
B34	95	0.099	0.00018			
B35				102	0.102	0.00029
B36				98	0.098	9.9e-05
